# Measurements: patent US8304565B2, “PEG-lipid conjugates for liposomes and drug delivery” (priority 2008, dated 2012)
# Experiments:
# [1] = tested on: human red blood cells; assay: Hemolysis of human red blood cells; format: cell-based; settings: equivalent concentrations (20 mmol), absorbance at 413 nm
# Experimental: In addition, hemolysis of human red blood cells was performed to provide a more quantitative cytotoxicity evaluation of the PEG-grafted lipids. Cell lysis caused by cytotoxic material leads to release of heme into solution, which was detected by absorbance at 413 nm and compared to control experiments performed in the absence of the synthetic material. Results in Table 6 for equivalent concentrations (20 mmol) of sodium lauryl sulfate (SLS) and mPEG-600 were shown for the comparison.
# [2] = In vitro stability of selective linkers at low pH; format: physicochemical; settings: 10 mM phosphate buffer (pH 2.1), approximately 0.05 g/mL, 37°, GPC with RI detector
# Experimental: Three DAG-PEGs with equivalent PEG chains and fatty acids, but different linkages (shown in Table 5) were tested for stability at low pH, in the range of 1.4 to 2.1. Table 5 includes alternate names for each of the three DAG-PEGs tested.
# The selected DAG-PEGs were mixed with 10 mM phosphate buffer (pH 2.1) at final concentrations approximately 0.05 g/mL and incubated at 37° . The sample solutions were tested on a GPC column with RI detector and the breakdown fragments were further confirmed by LC-MS/MS.
# In FIG. 1, (1) is PEG (n=12)-3-acetyl-1,2-rac-dioleoylglucerol, (2) is PEG (n=12)-3-acetamido-dioleoylglycerol and (3) is PEG (n=12)-3-N-(mercaptomethyl)-Propionamido-1,2-rac-dioleoylglucerol.
# [3] = mouse, in vivo, iv, 10 mg/kg
# Experimental: Groups of three male mice (B6D2F1) were used for the studies. Pharmacokinetics (PK) were performed on heparinized mouse plasma samples obtained typically at 0 hr, 0.08 hr, 0.25 hr, 0.5 hr, 1 hr, 2 hr, 4 hr, 8 hr, 16 hr and 24 hr after the bolus IV injection or oral feeding for posaconazole and at 0 hr, 0.08 hr, 0.25 hr, 0.5 hr, 1 hr, 2 hr, 4 hr, 8 hr, 16 hr and 24 hr for itraconazole. Samples were analyzed using a HPLC-MS method. To determine the level of each drug, the drug was first isolated from plasma with a sample pre-treatment. Acetonitrile were used to remove proteins in samples. An isocratic HPLC-MS method was then used to separate the drugs from any potential interference. Drug levels were measured by MS detection with a multiple reaction monitoring (MRM) mode. PK data was analyzed using the WinNonlin program (ver. 5.2, Pharsight) compartmental models of analysis.
# The drug was administered intravenously and the dosing strength was 10 mg/kg.
# [4] = Spontaneous liposome formation of DAG-PEG lipids; format: physicochemical
# Excerpt: Herein, we describe biologically degradable linear PEG analogs carrying diacylglycerol lipid groups. These new molecules belong to a class referred to as diacylglycerol-polyethyleneglycols (DAG-PEGs). DAG-PEGs having certain properties form liposomes spontaneously upon mixing with an aqueous solution. Briefly, DAG-PEGs or lipid mixtures including DAG-PEGs must have packing parameters that allow liposome formation. Generally, Pa is preferably between about 0.84 and 0.88, and Pv is preferably between about 0.88 and 0.93. Also, the DAG-PEGs or lipid mixtures including DAG-PEGs must have a melting point below the temperature of liposome formation. If a DAG-PEG meets these conditions, it will form liposomes spontaneously (without external energy inputs). Spontaneous liposomes and DAG-PEGs are described in U.S. Pat. No. […], which is hereby incorporated by reference. The particular DAG-PEGs described in U.S. Pat. No. […] utilized a single oxy (alternatively called oxyl) linkage between the PEG and the glycerol backbone.
# A number of new DAG-PEGs were synthesized and tested. Most of the combinations of PEG chains and fatty acids were chosen because it was known or expected that such DAG-PEGs with oxy linkages would have packing parameters and melting points favorable for the formation of liposomes.
compound,measurement,setting,value
"CCCCCCCCCCCCOS(=O)(=O)[O-].[Na+] [SLS, sodium lauryl sulfate]",% Hemolysis,[1],80%
"PEG (n=12)-3-N-(mercaptomethyl)-Propionamido-1,2-rac dioleoylglycerol [PEG-12-S2-GDO]",stability at low pH,[2],degraded quickly
PEG (n=12)-3-acetamido-dioleoylglycerol [PEG-12-N3-GDO],stability at low pH,[2],relatively stable
POPC,AUC,[3],164.1 µg·h/mL
"PEG (n=12)-3-acetyl-1,2-rac-dioleoylglycerol [PEG-12-Ac2-GDO]",Spontaneous Liposome at 20° C.,[4]; 20° C.,Yes
same,Spontaneous Liposome at 37° C.,[4]; 37° C.,Yes
same,stability at low pH,[2],stable
